In paper PMC7175128, “Rational Engineering of the Substrate Specificity of a Thermostable D-Hydantoinase (Dihydropyrimidinase)” (High-Throughput, 2020):

Legend:
O=C1CCNC(=O)N1 = system: T1, O=C1CCNC(=O)N1; experiment: purified protein; type: biochemical, Geobacillus stearothermophilus; conditions: 0.1 M MOPS pH 8.0, 0.5 mM MnSO4, temperature of kinetics not stated (activity assays at 60 °C)
T1 construct: recombinant from pET-Hyd in E. coli BL21(DE3); 52 kDa; heat-treated, ultrafiltered, desalted

[1] = system: T2, O=C1NC(=O)C(Cc2c[nH]c3ccccc23)N1; experiment: purified protein; type: biochemical, Geobacillus stearothermophilus; conditions: 0.1 M MOPS pH 8.0, 0.5 mM MnSO4, temperature of kinetics not stated (activity assays at 60 °C)
T2 construct: recombinant from pET-Hyd in E. coli BL21(DE3); 52 kDa; heat-treated, ultrafiltered, desalted

Substance | Km (O=C1CCNC(=O)N1) | kcat (O=C1CCNC(=O)N1) | kcat/Km (O=C1CCNC(=O)N1) | Km [1] | kcat [1] | kcat/Km [1]
D-hydantoinase (dihydropyrimidinase) of G. stearothermophilus ATCC 31783 (Geobacillus stearothermophilus) | 970 ± 220 µM | 11.2 ± 0.7 s⁻¹ | 11300 ± 2200 M⁻¹ s⁻¹ | – | – | –
D-hydantoinase (dihydropyrimidinase) of G. stearothermophilus ATCC 31783 (Geobacillus stearothermophilus; F159A) | 2890 ± 1270 µM | 21.8 ± 2.6 s⁻¹ | 7530 ± 2500 M⁻¹ s⁻¹ | 600 ± 580 µM | 4.16 ± 0.60 s⁻¹ | 6890 ± 5830 M⁻¹ s⁻¹
D-hydantoinase (dihydropyrimidinase) of G. stearothermophilus ATCC 31783 (Geobacillus stearothermophilus; F159A/W287A) | 5610 ± 2320 µM | 6.16 ± 1 s⁻¹ | 1100 ± 300 M⁻¹ s⁻¹ | 4300 ± 400 µM | 12.5 ± 0.50 s⁻¹ | 2900 ± 170 M⁻¹ s⁻¹
D-hydantoinase (dihydropyrimidinase) of G. stearothermophilus ATCC 31783 (Geobacillus stearothermophilus; I190A) | 1120 ± 610 µM | 7.99 ± 0.9 s⁻¹ | 7090 ± 3200 M⁻¹ s⁻¹ | – | – | –
D-hydantoinase (dihydropyrimidinase) of G. stearothermophilus ATCC 31783 (Geobacillus stearothermophilus; W287A) | 430 ± 130 µM | 2.76 ± 0.17 s⁻¹ | 6530 ± 1830 M⁻¹ s⁻¹ | 1660 ± 850 µM | 6.83 ± 0.97 s⁻¹ | 4130 ± 1630 M⁻¹ s⁻¹
